The supplement of paper PMC9732359
± gives the uncertainty stated by the source.

Test: protein stability index of a GFP-peptide fusion (yeast GPS) (PSI 1-4); higher = more stable; sorted into four equal gates, so the index is relative within each strain
How it was run: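 Tiled 17-residue peptides from yeast proteins were fused downstream of GFP on a plasmid that also expresses Cherry, and the pooled library was carried in yeast. Mid-log cultures grown in leucine-free medium were sorted into four equal gates by GFP/Cherry fluorescence ratio. Plasmids from each gate were PCR-amplified and Illumina-sequenced, and reads were assigned to strains by barcodes. Each peptide's protein stability index is the sum, over gates, of the gate's read frequency multiplied by its gate number.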

| Sequence | protein stability index (doa10∆) | protein stability index (pdr5∆) | protein stability index (san1∆) | protein stability index (ubr1∆) |
| --- | --- | --- | --- | --- |
| LGLYVGVDDQILATNSL [YJL039C/NUP192] | 2.64 ± 0.092 | 3.06 ± 0.12 | 2.3 ± 0.11 | 1.73 ± 0.16 |
| LTATPNSINKTTVPFKE [POP1] | 1.75 ± 0.061 | 2.44 ± 0.06 | 1.66 ± 0.14 | 2.48 ± 0.054 |
| GDIESLFEQLQTVSNKE [SRP54] | 3.08 ± 0.098 | 2.87 ± 0.079 | 3.18 ± 0.045 | 3.12 ± 0.046 |
| QKTRVKLLFDHDELDMN [ESC2] | 2.87 ± 0.16 | 3.36 ± 0.12 | 3.02 ± 0.076 | 3.12 ± 0.093 |
| EDMIDQVSKKLSSIEAS [SMC3] | 3.07 ± 0.16 | 2.54 ± 0.15 | 2.84 ± 0.12 | 3.05 ± 0.12 |
| GNDNNSDSNANAAVAGV [SWI3] | 3.21 ± 0.057 | 3.35 ± 0.056 | 3.31 ± 0.029 | 3.18 ± 0.058 |
| IMWQLLDGVSYLHQNWV [SSN3] | 1.61 ± 0.074 | 1.59 ± 0.08 | 1.23 ± 0.12 | 1.75 ± 0.076 |
| EHGYQSRGFEVMYNGHT [RPB2] | 2.92 ± 0.15 | 2.62 ± 0.18 | 2.88 ± 0.15 | 2.61 ± 0.19 |
| QAQAQAQAAQAAQAQAQ [GAL11] | 2.84 ± 0.092 | 3.02 ± 0.14 | 2.93 ± 0.066 | 3.04 ± 0.11 |
| DLSMVPKMKDEEYDDDD [SNF2] | 2.9 ± 0.13 | 3.22 ± 0.14 | 3.24 ± 0.098 | 2.99 ± 0.12 |
| LGHPDNYIPGNPLVTPA [COB] | 2.49 ± 0.11 | 3.07 ± 0.13 | 2.93 ± 0.075 | 2.93 ± 0.068 |
| RMPIMLRSNKCILYDAD [RET1] | 1.23 ± 0.15 | 1.41 ± 0.11 | 1.25 ± 0.25 | 1.77 ± 0.095 |
| FGNIQKVVNFWLLHNGF [RPO21] | 2.26 ± 0.18 | 1.83 ± 0.099 | 1.99 ± 0.19 | 1.41 ± 0.073 |
| GRLNTLVISLAATNETF [IRR1] | 1.64 ± 0.088 | 1.38 ± 0.065 | 1.1 ± 0.23 | 1.17 ± 0.06 |
| KLSKILPRYQELTKEEA [SMC3] | 3.16 ± 0.11 | 3.34 ± 0.094 | 3.34 ± 0.086 | 3.35 ± 0.1 |
| QWMVSLFNNHLNGILAD [SNF2] | 1.39 ± 0.12 | 1.46 ± 0.11 | 1.37 ± 0.14 | 1.2 ± 0.059 |
| LHQHVVLKCLKSLESQR [RPC34] | 2.77 ± 0.11 | 2.58 ± 0.083 | 2.41 ± 0.095 | 2.53 ± 0.11 |
| YRNNEPAGFTHKLSNWL [YDL088C/ASM4] | 2.49 ± 0.072 | 3.04 ± 0.058 | 2.7 ± 0.06 | 2.82 ± 0.039 |
| TLNPDLFLYKELVKAHL [RPC82] | 2.71 ± 0.079 | 2.87 ± 0.074 | 2.95 ± 0.053 | 2.42 ± 0.055 |
| MKDRLVEWNDQVEKLGK [RPN9] | 3.4 ± 0.13 | 3.06 ± 0.1 | 3.36 ± 0.083 | 3.39 ± 0.085 |
| DVLINELLDQVTLGREG [CDC53] | 3.06 ± 0.078 | 3.1 ± 0.073 | 3.06 ± 0.08 | 3.17 ± 0.066 |
| PTPAIIKPKPLWSGKQI [RPO21] | 2 ± 0.11 | 2.5 ± 0.093 | 2.48 ± 0.08 | 2.54 ± 0.098 |
| RQLQYETLGDILKRDFE [ECM29] | 2.92 ± 0.075 | 3.36 ± 0.099 | 2.76 ± 0.095 | 3.02 ± 0.087 |
| YATKRQEAIQQNRRLAF [PRP8] | 2.43 ± 0.11 | 2.43 ± 0.12 | 2.62 ± 0.25 | 2.61 ± 0.067 |
| PEMSNLYRLSTPLRDEV [PRP8] | 2.76 ± 0.067 | 2.76 ± 0.047 | 2.56 ± 0.044 | 2.75 ± 0.06 |
